Results from US20160193357A1.
pKd: −log10 of the molar value.

Assays:
[1] = biological target: human Trop-2 on cells (human) (UniProt P09758); test: cell binding on NCI-N87, anti-mouse-HRP, luminescence
[2] = biological target: recombinant human neonatal receptor (FcRn) (human) (UniProt P55899); test: SPR (BIACORE), FcRn on low-density chip, three runs at 400 to 25 nM
[3] = biological target: rhTrop-2/TACSTD2 (Sino Biological, Inc.) (human) (UniProt P09758); test: SPR (BIACORE), recombinant human Trop-2 on low-density CM5 chip, 1:1 model, three runs
[4] = biological target: Recombinant human Trop-2 with a His-tag (Sino Biological, Cat#10428-H09H) (human) (UniProt P09758); test: ELISA on His-tagged recombinant human Trop-2 captured on Ni-NTA strips
[5] = biological target: human Trop-2 on cells (human) (UniProt P09758); test: cell-based or functional assay
[6] = biological target: rhTrop-2/TACSTD2 (Sino Biological, Inc.) (human) (UniProt P09758); test: SPR (BIACORE), Trop-2 on chip
[7] = biological target: human Trop-2 on cells (human) (UniProt P09758); test: cell binding assay; cell line not stated
[8] = biological target: recombinant human neonatal receptor (FcRn) (human) (UniProt P55899); test: SPR (BIACORE), FcRn on chip

Chain of human Trop-2 on cells (human) (P09758 27-323): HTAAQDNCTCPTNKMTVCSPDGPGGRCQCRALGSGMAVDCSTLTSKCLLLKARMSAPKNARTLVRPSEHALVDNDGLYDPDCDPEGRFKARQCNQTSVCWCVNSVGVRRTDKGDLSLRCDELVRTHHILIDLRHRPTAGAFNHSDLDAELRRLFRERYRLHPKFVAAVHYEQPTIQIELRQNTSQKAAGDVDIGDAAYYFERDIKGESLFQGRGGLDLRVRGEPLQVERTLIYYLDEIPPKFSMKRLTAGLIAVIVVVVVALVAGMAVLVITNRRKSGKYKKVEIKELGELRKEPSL
Chain of rhTrop-2/TACSTD2 (Sino Biological, Inc.) (human) (P09758 27-274 limits assumed): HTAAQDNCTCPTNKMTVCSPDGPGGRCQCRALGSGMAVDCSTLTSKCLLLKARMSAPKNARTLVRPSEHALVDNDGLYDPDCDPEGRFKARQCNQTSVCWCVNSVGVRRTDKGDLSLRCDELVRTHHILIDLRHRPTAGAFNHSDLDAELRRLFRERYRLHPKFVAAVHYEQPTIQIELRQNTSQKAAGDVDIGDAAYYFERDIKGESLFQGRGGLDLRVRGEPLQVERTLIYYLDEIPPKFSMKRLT
Chain of Recombinant human Trop-2 with a His-tag (Sino Biological, Cat#10428-H09H) (human) (P09758 27-274 limits assumed): as above

| Substance | BMax (relative luminescent units) [1] | pKd [1] | reduction of maximum binding (Bmax) compared to RS7 [1] | pKd [2] | pKd [3] | ADCC, specific lysis of MDA-MB-468 by PBMCs (E:T 50:1, 33.3 nM) [5] | γH2AX induction in BxPC-3, Mean Fluorescence Intensity [5] | γH2AX induction in BxPC-3, Percent Positive [5] | other results |
| --- | --- | --- | --- | --- | --- | --- | --- | --- | --- |
| MAB650 murine anti-Trop-2 monoclonal antibody (R&D Systems) | 6020 | 9.31 | 50% | – | – | – | – | – | – |
| humanized RS7 (hRS7) anti-Trop-2 antibody | – | – | – | 7.03 | 9.29 | 29.8% | – | – | pKd [4]: 9.52; ADCC, specific lysis of BxPC-3 by PBMCs (E:T 100:1, 33.3 nM) [5]: 8.5% |
| hA20 anti-CD20-SN38 conjugate (antibody) | – | – | – | – | – | – | 2250 MFI | 12.7% | – |

Second part, led by results:

| BMax (relative luminescent units) [1] | pKd [1] | reduction of maximum binding (Bmax) compared to RS7 [1] | pKd [2] | pKd [3] | ADCC, specific lysis of MDA-MB-468 by PBMCs (E:T 50:1, 33.3 nM) [5] | γH2AX induction in BxPC-3, Mean Fluorescence Intensity [5] | γH2AX induction in BxPC-3, Percent Positive [5] | Substance | other results |
| --- | --- | --- | --- | --- | --- | --- | --- | --- | --- |
| – | – | – | 6.72 | 9.59 | 8.6% | 5350 MFI | 69% | Sacituzumab govitecan (IMMU-132, also known as hRS7-CL2A-SN-38) (antibody) | fold improvement in KD compared to naked hRS7 [6]: 2 fold; pKd [7]: 8.92; fold lower average binding level than hRS7 [8]: 2 fold; Median fluorescence intensity of phospho-H2AX staining (dsDNA breaks), HCC1806 (Trop-2+), after 30 min at 4° C., wash and overnight culture [5]: 546 MFI |
| 8470 | 9.28 | 25% | – | – | – | – | – | 162-46.2 murine anti-Trop-2 monoclonal antibody | – |
